What is called EC50 is the concentration needed to bring the measured effect to its halfway point. Low readings indicate a more potent agent, high ones a less potent agent.

T1: hP40 (human, UniProt P29460 23-328)
T1 construct: bought
T1 sequence (looked up): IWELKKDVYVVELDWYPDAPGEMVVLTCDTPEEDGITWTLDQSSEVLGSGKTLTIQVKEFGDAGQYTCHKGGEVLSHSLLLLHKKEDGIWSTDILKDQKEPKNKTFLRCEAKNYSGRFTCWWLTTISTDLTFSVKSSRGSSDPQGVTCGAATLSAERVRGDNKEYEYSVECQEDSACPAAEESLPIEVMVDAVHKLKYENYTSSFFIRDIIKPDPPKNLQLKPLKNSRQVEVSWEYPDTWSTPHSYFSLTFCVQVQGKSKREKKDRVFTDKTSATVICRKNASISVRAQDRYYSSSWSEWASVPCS

T2: CEA on MKN45 cells (UniProt P06731 35-685)
T2 construct: whole, on cells
T2 sequence (looked up): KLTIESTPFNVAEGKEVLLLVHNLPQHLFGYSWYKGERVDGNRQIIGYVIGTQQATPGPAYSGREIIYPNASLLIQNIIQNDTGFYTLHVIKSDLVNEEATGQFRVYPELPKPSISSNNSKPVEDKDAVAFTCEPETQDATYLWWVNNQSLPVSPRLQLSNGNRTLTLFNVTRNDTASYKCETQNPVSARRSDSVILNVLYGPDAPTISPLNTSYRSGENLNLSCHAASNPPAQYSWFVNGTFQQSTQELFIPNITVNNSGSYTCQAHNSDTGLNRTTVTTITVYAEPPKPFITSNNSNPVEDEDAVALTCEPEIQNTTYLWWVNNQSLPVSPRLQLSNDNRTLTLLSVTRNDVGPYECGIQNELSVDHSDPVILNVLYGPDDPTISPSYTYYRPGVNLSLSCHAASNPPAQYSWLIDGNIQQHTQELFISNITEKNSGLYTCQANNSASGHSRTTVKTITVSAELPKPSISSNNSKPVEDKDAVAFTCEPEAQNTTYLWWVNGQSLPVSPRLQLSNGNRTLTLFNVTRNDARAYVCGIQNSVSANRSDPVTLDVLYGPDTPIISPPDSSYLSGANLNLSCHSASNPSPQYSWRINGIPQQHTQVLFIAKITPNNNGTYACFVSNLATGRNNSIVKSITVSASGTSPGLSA

B1: R10 (antibody)
heavy: not shown
light: DIQMTQSPSSLSASVGDRVTITCLASEGISSYLAWYQQKPGKAPKLLIYGANSLQTGVPSRFSGSGSATDYTLTISSLQPEDFATYYCQQSYKFPNTFGQGTKVEVKSGAPRFLTRPKAFVVSVGKDATLSSQIVGNPTPQVSWEKDQQPVAAGARFRLAQDGDLYRLTILDLALGDSGQYVSRARNAIGEAFACVGLQVDAEA
B2: R19 (antibody)
heavy: not shown
light: DIQMTQSPSSLSASVGDRVTITCLASEGISSYLAWYQQKPGKAPKLLIYGANSLQTGVPSRFSGSGSATDYTLTISSLQPEDFATYYCQQSYKFPNTFGQGTKVEVKDQPQFSGAPRFKTRPKAFVVSVGKDATLSSQIVGNPTPQVSWEKDQQPVAAGARFRLAQDGDLYRLKILDLALGDSGQYVSRARNAIGEAFACVGLQVDAEA
B3: R20 (antibody)
heavy: not shown
light: B2 light with K174H
B4: R22 (antibody)
heavy: not shown
light: B2 light with K119R, K174H
B5: R18 (antibody)
heavy: not shown
light: B2 light with K119L, K174T
B6: R21 (antibody)
heavy: not shown
light: B2 light with K119R
B7: R17 (antibody)
heavy: not shown
light: B1 light with K118L, T169H
B8: R15 (antibody)
heavy: not shown
light: B1 light with L114K, T169H
B9: R16 (antibody)
heavy: not shown
light: B1 light with K118L, T169K
B10: B3 (antibody)
heavy: not shown
light: SSELTQDPAVSVALGQTVRVTCQGDSLRSYYASWYQQKPGQAPVLVIYGKNNRPSGIPDRFSGSSSGNTASLTITGAQAEDEADYYCSSRDSSGNHWVFGGGTELTVLSEAPRFLTRPLAFVVSEGKDATLSSQIVGDPPPEVTWEKDQQPITAGARFRLAQDGDVYRLEILDLQLSDSGQYVSRARNAIGEAFACVGLQVDAEG
B11: B2 (antibody)
heavy: not shown
light: SSELTQDPAVSVALGQTVRVTCQGDSLRSYYASWYQQKPGQAPVLVIYGKNNRPSGIPDRFSGSSSGNTASLTITGAQAEDEADYYCSSRDSSGNHWVFGGGTELTVLSGAPRFLTRPKSYTVSVGKDASLSSQIVGNPTPQVSWEKDQQPVAAGARFRLAQDGDLYRLKILDLALGDSGQYVSRARNAIGEAFACVGLQVDAEA
B12: B7 (antibody)
heavy: not shown
light: SSELTQDPAVSVALGQTVRVTCQGDSLRSYYASWYQQKPGQAPVLVIYGKNNRPSGIPDRFSGSSSGNTASLTITGAQAEDEADYYCSSRDSSGNHWVFGGGTELTVLSGAPRFLTRPLAFVVSVGKDATLSSQIVGNPTPQVSWEKDQLPVTAGARFRLAQDGDLYRLKILDLTLSDSGQYVSRARNAIGEAFACVGLEVGAEA
B13: B4 (antibody)
heavy: not shown
light: B12 light with Q149K, L150Q, T175Q, V197L, E200Q, G202D
B14: B5 (antibody)
heavy: not shown
light: B12 light
B15: B6 (antibody)
heavy: not shown
light: B12 light
B16: B8 (antibody)
heavy: not shown
light: B12 light with A120S, F121Y, T130S, T175Q
B17: B1 (antibody)
heavy: not shown
light: B11 light with K119L, S120A, Y121F, T122V, S130T
B18: U7 (antibody)
heavy: not shown
light: DIQMTQSPSSLSASVGDRVTITCRASQGISSWLAWYQQKPEKAPKSLIYAASSLQSGVPSRFSGSGSGTDFTLTISSLQPEDFATYYCQQYNIYPYTFGQGTKLEIKSGAPRFLTRPLAFVVSVGKDATLSSQIVGNPTPQVSWEKDQLPVTAGARFRLAQDGDLYRLKILDLTLSDSGQYVSRARNAIGEAFACVGLEVGAEA
B19: U5 (antibody)
heavy: not shown
light: B18 light
B20: U6 (antibody)
heavy: not shown
light: B18 light
B21: U1 (antibody)
heavy: not shown
light: B18 light with L149Q, T152A, T174A, S176G, E199Q, G201D
B22: C1 (antibody)
heavy: not shown
light: DIVMTQSPDSLAVSLGERATINCRASESVSIIGTNLIHWYQQKPGQPPKLLIYHASNLETGVPDRFSGSGSGTDFTLTISSLQAEDVAVYYCLQSRKIPYTFGGGTKVEIKGIPPKIEALPSDISIDEGKVLTVACAFTGEPTPEVTWSCGGRKIHSQEQGRFHIENTDDLTTLIIMDVQKQDGGLYTLSLGNEFGSDSATVNIHIRSI
B23: C2 (antibody)
heavy: not shown
light: B22 light
B24: C0 (antibody, human IgG1, kappa)
heavy: not shown
light: DIVMTQSPDSLAVSLGERATINCRASESVSIIGTNLIHWYQQKPGQPPKLLIYHASNLETGVPDRFSGSGSGTDFTLTISSLQAEDVAVYYCLQSRKIPYTFGGGTKVEIKRTVAAPSVFIFPPSDEQLKSGTASVVCLLNNFYPREAKVQWKVDNALQSGNSQESVTEQDSKDSTYSLSSTLTLSKADYEKHKVYACEVTHQGLSSPVTKSFNRGEC
B25: N1 (antibody)
heavy: not shown
light: EIVLTQSPGTLSLSPGERATLSCRASQNINNRFLAWYQQRPGQAPRLLIYAASSRATGVPDRFSGSGSGTDFTLTISRLEAEDFAMYHCQQYGSFPRTFGQGTMVDIKGILQPDPPANITVTAVARNPRWLSVTWQDPHSWNSSFYRLRFELRYRAERSKTFTTWMVKDLQHHCVIHDAWSGLRHVVQLRAQEEFGQGEWSEWSPEAMGTPW
B26: N0 (antibody, human IgG1, kappa)
heavy: not shown
light: EIVLTQSPGTLSLSPGERATLSCRASQNINNRFLAWYQQRPGQAPRLLIYAASSRATGVPDRFSGSGSGTDFTLTISRLEAEDFAMYHCQQYGSFPRTFGQGTMVDIKRTVAAPSVFIFPPSDEQLKSGTASVVCLLNNFYPREAKVQWKVDNALQSGNSQESVTEQDSKDSTYSLSSTLTLSKADYEKHKVYACEVTHQGLSSPVTKSFNRGEC
B27: N2 (antibody)
heavy: not shown
light: EIVLTQSPGTLSLSPGERATLSCRASQNINNRFLAWYQQRPGQAPRLLIYAASSRATGVPDRFSGSGSGTDFTLTISRLEAEDFAMYHCQQYGSFPRTFGQGTMVDIKFDPVYKVKPNPPHNLSVINSEELSSILKLTWTNPSIKSVIILKYNIQYRTKDASTWSQIPPEDTASTRSSFTVQDLKPFTEYVFRIRCMKEDGKGYWSDWSEEASGIT
B28: N5 (antibody)
heavy: not shown
light: EIVLTQSPGTLSLSPGERATLSCRASQNINNRFLAWYQQRPGQAPRLLIYAASSRATGVPDRFSGSGSGTDFTLTISRLEAEDFAMYHCQQYGSFPRTFGQGTMVDIKGIPPKIEALPSDISIDEGKVLTVACAFTGEPTPEVTWSCGGRKIHSQEQGRFHIENTDDLTTLIIMDVQKQDGGLYTLSLGNEFGSDSATVNIHIRSI

Where a chain is given by its changes, count along the chain named.

For one assay, the target named is T3, hIL-5 (human, UniProt P05113 20-134).
T3 construct: bought
Put plainly: ELISA. (An ELISA detects its analyte on a solid surface through an enzyme-linked reagent.)
Protocol: (§1) For an antibody targeting a soluble protein, the binding activity of the antibody against the soluble protein was detected by ELISA. […] After the blocking was completed, the blocking solution was discarded; and the plate was washed 3 times with a PBST buffer (pH 7.4, PBS containing 0.1% tween-20). 100 μL of the antibody solution diluted in a gradient was added to each well, and the mixture was incubated at 37° C. for 1 h. After the incubation was completed, the plate was washed 3 times with PBST. […] The plate was washed 3 times with PBST. […] The reaction was stopped by adding 50 μL of 1 M H₂SO₄ to each well. The absorbance values at 450 nm were read on a microplate reader, the binding curves of the antibodies to an antigen were fitted with software, and the EC₅₀ values were calculated.
Turning to B1, it took 3.2 nM to reach a half-maximal effect (EC50).

The target of a further assay is T3, hIL-5. The experiment in a line: ELISA. This is another data set of the same source.
Protocol: as §1
As to B2, the 50% effective concentration (EC50) was 0.36 nM. Molecule B3 had an EC50 of 0.39 nM. In the case of B4, the EC50 turned out to be 0.39 nM. B5 gave an EC50 of 0.44 nM. With B6, the response was half-maximal at 0.37 nM (EC50).

On to B1, for which the EC50 turned out to be 0.37 nM.

B7 had an EC50 of 0.4 nM. In turn, B8 registered an EC50 of 0.3 nM. The molecule B9 returned an EC50 of 0.33 nM.

The target in another assay is T4, hBAFF (human, UniProt Q9Y275 134-285).
T4 construct: bought
Put plainly: ELISA.
Protocol: as §1
In the case of B10, the half-maximal effective concentration (EC50) came out at 0.5 nM. Still for that read-out and setting: to B11 belongs 0.19 nM; to B12, 0.35 nM; to B13, 0.25 nM.

Turning to B14, the response was half-maximal at 0.29 nM (EC50).

The molecule B15 registered an EC50 of 0.19 nM. With B16, the half-maximal effective concentration (EC50) was found to be 0.16 nM.

As for B17, the midpoint of the response, the EC50, lay at 0.28 nM.

In another assay the target is T1, hP40. The experiment in a line: ELISA.
Protocol: as §1
B18 registered a concentration for a half-maximal effect (EC50) of 0.07 nM. With B19, a half-maximal response (EC50) required 0.11 nM.

The molecule B20 returned an EC50 of 0.11 nM.

Molecule B21 displayed an EC50 of 0.03 nM.

The target in another assay is T2, CEA on MKN45 cells. The experiment in a line: FACS, MKN45 cells. (A flow cytometer gives signals particle by particle.)
With B22, the midpoint of the response, the EC50, lay at 17.7 nM. In the case of B23, the EC50 stood at 16.5 nM. B24 came in with an EC50 of 5.81 nM.

For the molecule B25, the EC50 was found to be 1230 nM. On the same count and under the same terms, to B26 belongs 0.82 nM. Molecule B27 registered an EC50 of 766 nM. B28: the EC50 amounted to 5.24 nM.

These data come from patent US20240392020A1 (JIANGSU HENGRUI PHARMACEUTICALS, published 2024).
